In US6942853:

Key:
[1] = tested on: 75 kDa glycosylated product of LAP-mIFNβ
[2] = tested on: 75 kDa glycosylated product of mIFNβ-LAP
[3] = biological target: LAP-mIFNβ fusion protein (human (LAP of TGFβ) fused to mouse (IFNβ)); assay: cell-based or functional assay
[4] = tested on: CHO-derived latent TGFβ binding protein (LTBP)

active MMP1 (recombinant), sequence (P03956 100-469): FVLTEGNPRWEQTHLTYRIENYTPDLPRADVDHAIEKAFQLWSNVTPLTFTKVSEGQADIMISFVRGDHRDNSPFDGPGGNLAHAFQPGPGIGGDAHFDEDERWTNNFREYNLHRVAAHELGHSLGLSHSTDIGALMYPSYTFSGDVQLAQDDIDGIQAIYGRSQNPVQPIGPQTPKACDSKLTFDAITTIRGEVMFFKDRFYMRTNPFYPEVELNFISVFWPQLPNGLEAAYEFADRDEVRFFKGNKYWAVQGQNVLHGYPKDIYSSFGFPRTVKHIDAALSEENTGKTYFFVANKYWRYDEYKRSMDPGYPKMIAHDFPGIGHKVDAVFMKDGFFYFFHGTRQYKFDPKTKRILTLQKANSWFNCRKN
recombinant pro-MMP9, sequence (P14780 20-707): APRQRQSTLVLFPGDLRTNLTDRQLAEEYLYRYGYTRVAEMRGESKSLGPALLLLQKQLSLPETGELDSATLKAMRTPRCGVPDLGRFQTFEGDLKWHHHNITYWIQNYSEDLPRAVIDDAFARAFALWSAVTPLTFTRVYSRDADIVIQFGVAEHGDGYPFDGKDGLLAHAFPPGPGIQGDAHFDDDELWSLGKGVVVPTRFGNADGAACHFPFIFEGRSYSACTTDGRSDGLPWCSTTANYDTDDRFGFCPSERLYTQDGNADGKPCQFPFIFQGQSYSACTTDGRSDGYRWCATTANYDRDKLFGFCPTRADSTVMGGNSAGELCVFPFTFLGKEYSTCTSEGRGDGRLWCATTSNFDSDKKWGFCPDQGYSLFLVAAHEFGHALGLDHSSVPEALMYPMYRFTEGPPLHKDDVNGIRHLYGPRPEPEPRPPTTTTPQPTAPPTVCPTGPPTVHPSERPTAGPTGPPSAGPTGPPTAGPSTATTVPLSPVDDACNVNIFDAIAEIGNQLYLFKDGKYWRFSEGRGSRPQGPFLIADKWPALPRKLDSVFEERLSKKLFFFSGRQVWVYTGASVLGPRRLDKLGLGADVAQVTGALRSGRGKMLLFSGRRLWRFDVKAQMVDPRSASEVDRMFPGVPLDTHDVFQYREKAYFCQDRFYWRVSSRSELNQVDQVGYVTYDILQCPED
LAP-mIFNβ fusion protein, sequence (chain, as listed by the source): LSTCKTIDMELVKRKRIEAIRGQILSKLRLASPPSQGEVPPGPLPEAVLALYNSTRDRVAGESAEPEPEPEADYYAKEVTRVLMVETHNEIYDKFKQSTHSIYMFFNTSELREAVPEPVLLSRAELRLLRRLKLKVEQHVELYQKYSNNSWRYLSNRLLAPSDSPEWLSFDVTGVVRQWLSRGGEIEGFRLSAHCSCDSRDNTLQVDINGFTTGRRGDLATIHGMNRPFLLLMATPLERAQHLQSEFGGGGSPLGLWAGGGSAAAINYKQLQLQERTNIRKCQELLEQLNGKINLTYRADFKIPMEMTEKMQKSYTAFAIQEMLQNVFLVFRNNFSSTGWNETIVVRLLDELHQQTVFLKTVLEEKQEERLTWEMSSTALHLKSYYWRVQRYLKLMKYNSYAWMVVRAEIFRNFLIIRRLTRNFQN
mIFNβ-LAP fusion protein, sequence (chain, as listed by the source): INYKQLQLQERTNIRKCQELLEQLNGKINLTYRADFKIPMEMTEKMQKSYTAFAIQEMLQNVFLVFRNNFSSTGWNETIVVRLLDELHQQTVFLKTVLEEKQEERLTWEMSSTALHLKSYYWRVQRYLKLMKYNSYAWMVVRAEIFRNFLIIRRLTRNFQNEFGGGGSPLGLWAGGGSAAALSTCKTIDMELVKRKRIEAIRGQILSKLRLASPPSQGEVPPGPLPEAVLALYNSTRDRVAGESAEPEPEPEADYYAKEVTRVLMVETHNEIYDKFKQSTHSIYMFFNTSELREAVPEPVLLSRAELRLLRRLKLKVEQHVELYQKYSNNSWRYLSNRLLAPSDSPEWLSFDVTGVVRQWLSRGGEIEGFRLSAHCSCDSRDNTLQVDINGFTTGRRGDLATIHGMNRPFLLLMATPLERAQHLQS

Row | fold activation of antiviral activity (non-concentrated supernatants from MTX amplified cells) [3] [fold] | Substance | proteolytic cleavage of immunoprecipitated protein, SDS-PAGE [1] | proteolytic cleavage of immunoprecipitated protein, SDS-PAGE [2] | mIFNβ biological activity (U/ml) after MMP treatment (LAP-mIFNβ fusion protein) [U/ml] | proteolytic cleavage of immunoprecipitated protein, SDS-PAGE (LAP-mIFNβ fusion protein) | mIFNβ biological activity (U/ml) after MMP treatment (mIFNβ-LAP fusion protein) [U/ml] | proteolytic cleavage of immunoprecipitated protein, SDS-PAGE (mIFNβ-LAP fusion protein) | proteolytic cleavage of immunoprecipitated protein, SDS-PAGE [4] | proteolytic cleavage (LAP-mIFNβ fusion protein) | proteolytic cleavage (mIFNβ-LAP fusion protein)
1 |  | active MMP1 (recombinant) | MMP1 was capable of cleaving the glycosylated form of the fusion protein | MMP1 was capable of cleaving the glycosylated form of the fusion protein | 6140 | pro-MMP9 or MMP1 did not cleave very efficiently the 57 kDa recombinant product | 6140 | pro-MMP9 or MMP1 did not cleave very efficiently the 57 kDa recombinant product |  |  | 
2 | 21 | active MMP1 (recombinant) (enzyme) |  |  |  |  |  |  |  |  | 
3 |  | active MMP3 (recombinant) |  |  | 9220 | MMP3 was capable on its own to digest it into several discreet bands | 3070 | MMP3 was capable on its own to digest it into several discreet bands | The LTBP band was also cleaved by MMP3 |  | 
4 | 32 | active MMP3 (recombinant) (enzyme) |  |  |  |  |  |  |  |  | 
5 |  | recombinant pro-MMP9 |  |  | 288 | pro-MMP9 or MMP1 did not cleave very efficiently the 57 kDa recombinant product | 1540 | pro-MMP9 or MMP1 did not cleave very efficiently the 57 kDa recombinant product |  | MMP9 could not cleave the fusion proteins | MMP9 could not cleave the fusion proteins
